Legend:
[1] = biological target: T1, hTop2βcore (DNA-binding and cleavage core of human topoisomerase 2β) (human, UniProt Q02880-2 445-1201); experiment: X-ray crystallography (3.87 Å); open DNA-gate cleavage complex; Mn2+ (2 mM MnCl2), Mg acetate; etoposide or doxorubicin in crystallization mix, refined as binary complex; Crystallization: 5 mg/mL (~28 uM) protein, ~34 uM duplex, 2 mM etoposide or doxorubicin, 30 mM Tris-HCl pH 7.0, 70 mM NaCl, 2 mM MnCl2 (MgCl2 for P21), 1 mM EDTA, 2 mM β-mercaptoethanol; reservoir 100 mM Mg acetate, 50 mM MES pH 5.8 (5.6 for P21), …; settings: protein: recombinant; chain copies: 2; blunt; self-complementary, 2 copies; cleaved with 4-nt stagger in the complex
[2] = biological target: the molecule itself; experiment: crystal structure; open DNA-gate form of the hTop2β^core-DNA cleavage complex, space group P3_(2)21, one subunit in the asymmetric unit, homodimer built by the crystallographic twofold axis; 2.75 Å (5ZEN) and 3.87 Å with iodine-labelled DNA (5ZQF); MnCl2 in the sample buffer, reservoir pH 5.8, 4 °C
[3] = biological target: T1, hTop2βcore (DNA-binding and cleavage …); experiment: X-ray crystallography (2.75 Å); open DNA-gate cleavage complex; Mn2+ (2 mM MnCl2), Mg acetate; etoposide or doxorubicin in crystallization mix, refined as binary complex; Crystallization: 5 mg/mL (~28 uM) protein, ~34 uM duplex, 2 mM etoposide or doxorubicin, 30 mM Tris-HCl pH 7.0, 70 mM NaCl, 2 mM MnCl2 (MgCl2 for P21), 1 mM EDTA, 2 mM β-mercaptoethanol; reservoir 100 mM Mg acetate, 50 mM MES pH 5.8 (5.6 for P21), …; settings: protein: recombinant; chain copies: 2; blunt; self-complementary, 2 copies of S1; cleaved with 4-nt stagger in the complex

B1: 20-bp G-segment duplex, 5-iododeoxyuridine labeled (DNAI) (dsDNA)
DNA 1: AGCCGAGCUGCAGCUCGGCU
DNA 2: AGCCGAGCUGCAGCUCGGCU
modifications: 5-iodo-2'-deoxyuridine replaces all thymidines (positions 9, 15, 20 of each strand); U denotes iododeoxyuridine, DNA backbone
binding result [1]: binds

B2: DNA-binding and cleavage core of human topoisomerase 2β (hTop2β^core), in the covalent cleavage complex with a 20-bp duplex DNA (domain or fragment, UniProt Q02880-2 445-1201, looked up)
chain: SVKYSKIKGIPKLDDANDAGGKHSLECTLILTEGDSAKSLAVSGLGVIGRDRYGVFPLRGKILNVREASHKQIMENAEINNIIKIVGLQYKKSYDDAESLKTLRYGKIMIMTDQDQDGSHIKGLLINFIHHNWPSLLKHGFLEEFITPIVKASKNKQELSFYSIPEFDEWKKHIENQKAWKIKYYKGLGTSTAKEAKEYFADMERHRILFRYAGPEDDAAITLAFSKKKIDDRKEWLTNFMEDRRQRRLHGLPEQFLYGTATKHLTYNDFINKELILFSNSDNERSIPSLVDGFKPGQRKVLFTCFKRNDKREVKVAQLAGSVAEMSAYHHGEQALMMTIVNLAQNFVGSNNINLLQPIGQFGTRLHGGKDAASPRYIFTMLSTLARLLFPAVDDNLLKFLYDDNQRVEPEWYIPIIPMVLINGAEGIGTGWACKLPNYDAREIVNNVRRMLDGLDPHPMLPNYKNFKGTIQELGQNQYAVSGEIFVVDRNTVEITELPVRTWTQVYKEQVLEPMLNGTDKTPALISDYKEYHTDTTVKFVVKMTEEKLAQAEAAGLHKVFKLQTTLTCNSMVLFDHMGCLKKYETVQDILKEFFDLRLSYYGLRKEWLVGMLGAESTKLNNQARFILEKIQGKITIENRSKKDLIQMLVQRGYESDPVKAWKEAQEKAAEEDETQNQHDDSSSDSGTPSGPDFNYILNMSLWSLTKEKVEELIKQRDAKGREVNDLKRKSPSDLWKEDLAAFVEELDKVESQERED
modifications: catalytic tyrosine (Tyr821) joined to the 5′-phosphate of the cleaved G-segment DNA by a phosphotyrosyl linkage
notes: Not seen in 5ZEN chain A: 445-451, 597-602, 616-624, 703-706, 1112-1134; the His tag is surmised from the Ni-NTA step; also called hTop2^core; Top2 cleavage complex; source: E. coli BL21 (DE3) Star-pLysS, purified (Ni-NTA, heparin, Superdex 200)
binding result [2]: binds

B3: 20-bp G-segment duplex (native) (dsDNA)
DNA 1: AGCCGAGCTGCAGCTCGGCT
DNA 2: AGCCGAGCTGCAGCTCGGCT
binding result [3]: binds

Source: article PMC6078968, “Structural insights into the gating of DNA passage by the topoisomerase II DNA-gate” (Nature Communications, 2018)
